Tests used:
[1] = system: hnRNPA1; experiment: Methylation of hnRNP A1, SDS-PAGE and fluorography (FIG. 8C); assay type: biochemical, human; conditions: 0.083 mg/ml hnRNP-A1
Procedure: CARM1 and PRMT1 have different protein methyltransferase substrate specificities. CARM1 methylates histone H3, whereas PRMT1 methylates histone H4. […] (A,B) Calf thymus histones (Boehringer Mannheim) were incubated for 30 min at 30° C. in 32.5 μl reactions containing 20 mM Tris-Cl, 0.2 M NaCl, 4 mM EDTA, pH 8.0, 0.32 mg/ml individual histone (2a, 2b, 3, or 4) or 1.3 mg/ml mixed histone (M), 0.037 mg/ml GST-CARM1 or GST-PRMT1, and 7 μM S-adenosyl-L-[methyl-^3H]methionine (specific activity of 14.7 Ci/mmol). Reactions were stopped by addition of SDS-NuPAGE sample buffer (Novex), and 40% of each stopped reaction was then subjected to SDS-PAGE in 4-12% NuPAGE Bis-Tris gradient gels (Novex) using the Na-MES running buffer. Gels were stained with Coomassie Blue R-250 (A), and then subjected to fluorography (Chamberlin, M. (1978) Anal. Biochem. 98:132) for 12 h at −70° C. on sensitized Kodak XAR-5 film (B). Molecular weight markers (MW) are shown at left. Concentrations of GST fusion proteins were determined in comparison with bovine serum albumin standards (Sigma) by SDS polyacrylamide gel electrophoresis and Coomassie Blue staining; it was assumed that bovine serum albumin stained twice as intensely as most other proteins. Concentrations of histones and hnRNP A1 were determined by the method of Lowry (Lowry, O. H. et al. (1951) J. Biol. Chem. 193:265). […]

[2] = system: androgen receptor, estrogen receptor, and thyroid hormone receptor; experiment: Reporter gene activation by hormone-activated nuclear receptors in transiently transfected CV-1 cells; assay type: cell-based; conditions: co-expression of CARM1 with the NR and GRIP1, over NR+GRIP1 (lane e)
Procedure: (A) Transient transfection assays with CV-1 cells were performed as in FIG. 5 with 0.5 μg of GK1 reporter gene and 0.5 μg of each of the indicated vectors. (B) CV-1 cells were transiently transfected as in FIG. 5 with the following vectors, as indicated: 0.5 μg of nuclear receptor expression vector pSVAR0 (Brinkmann, A. O. et al. (1989) J. Steroid Biochem. Molec. Biol. 34:307) expressing AR, pHE0 (Green, S. et al. (1988) Nucleic Acids Res. 16:369) expressing ER, or pCMX.hTRβ1 (Feng, W. et al. (1998) Science 280:1747) expressing TR; 0.5 μg of a luciferase reporter gene with an appropriate promoter, MMTV promoter for AR, or MMTV promoter with the native glucocorticoid response elements replaced by a single estrogen response element for ER or palindromic thyroid hormone response element for TR (Umesono, K. and R. M. Evans (1989) Cell 57:1139); 0.5 μg of pSG5.HA-GRIP1; and 0.5 μg of pSG5.HA-CARM1 or pSG5.HA-CARM1 (VLD mutant). Transfection efficiency was monitored by using βgalactosidase activity expressed from 0.1 μg of co-transfected pCMV-βgal vector (Hong, H. et al. (1996) Proc. Natl. Acad. Sci. USA 93:4948-4952) as an internal control. After transfection, cells were grown in charcoal-treated serum; where indicated 20 nM hormone (H), i.e. dihydrotestosterone for AR, estradiol for ER, or triiodothyronine for TR, was included during the last 40 h of culture. […]

B1: CARM1: novel murine protein arginine methyltransferase and transcriptional coactivator, 608 amino acids (protein, listed as Mus musculus)
chain: MAAAAATAVGPGAGSAGVAGPGGAGPCATVSVFPGARLLTIGDANGEIQRHAEQQALRLEVRAGPDAAGIALYSHEDVCVFKCSVSRETECSRVGRQSFIITLGCNSVLIQFATPHDFCSFYNILKTCRGHTLERSVFSERTEESSAVQYFQFYGYLSQQQNMMQDYVRTGTYQRAILQNHTDFKDKIVLDVGCGSGILSFFAAQAGARKIYAVEASTMAQHAEVLVKSNNLTDRIVVIPGKVEEVSLPEQVDIIISEPMGYMLFNERMLESYLHAKKYLKPSGNMFPTIGDVHLAPFTDEQLYMEQFTKANFRYQPSFHGVDLSALRGAAVDEYFRQPVVDTFDIRILMAKSVKYTVNFLEAKEGDLHRIEIPFKFHMLHSGLVHGLAFWFDVAFIGSIMTVWLSTAPTEPLTHWYQVRCLFQSPLFAKAGDTLSGTCLLIANKRQSYDISIVAQVDQTGSKSSNLLDLKNPFFRYTGTTPSPPPGSHYTSPSENMWNTGSTYNLSSGVAVAGMPTAYDLSSVIAGGSSVGHNNLIPLANTGIVNHTHSRMGSIMSTGIVQGSSGAQGGGGSSSAHYAVNNQFTMGGPAISMASPMSIPTNTMHYGS
[1]
  methylation of hnRNPA1: not methylated
[2]
  further enhancement of reporter gene expression: 2 to 4 fold
